Laboratory results published in the supplement of paper PMC10567573.

B1: VDR (parent)
chain: LIKFQVGLKKLNLHEEEHVLLMAI
B2: C9orf9 (parent)
chain: LTKASLKPRGCSKPPWRPPGGKL

Variants of: B1
Assay: protein stability index of a GFP-peptide fusion (GPS, HEK-293T) (PSI 1-6); higher = more stable
Details: c terminus: a fixed tail appended
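Note: lentivirally expressed fusions sorted by FACS into six bins by GFP to DsRed ratio, PSI derived from sequencing read proportions per bin multiplied by bin number.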

Protein stability index of substitutions, site by site:
F4: L 4.2, M 1.75, N 4.44, P 1.31, Q 2.09, R 2.72, S 3.39, T 1.48, W 1.5, Y 2.64
Q5: D 4.34, F 2.56, H 2.65, K 2.89, L 3.08, N 1.79, P 2.97, V 2.77, W 3.59
V6: A 2.24, C 3.2, D 1.47, F 3.19, G 2.2, H 4.18, K 2.01, L 2.91, M 3.76, N 2.61, P 2.85, Q 1.74, S 2.98, T 2.73, W 1.54
G7: A 2.15, C 1.72, D 2.61, F 1.75, H 3.58, K 2.84, L 2.4, M 3.9, P 1.3, Q 3.23, S 2.46, T 2.82, W 3.47, Y 2.11
L8: D 3.48, F 3.06, H 2.3, I 3.67, K 2.85, M 3.04, N 2.82, P 2.31, Q 1.56, S 3.06, T 2.62, W 1.89
K9: A 2.27, C 5.08, D 2.79, F 3.38, G 3.2, H 1.59, I 1.03, L 2.97, M 3.2, N 1.61, P 3.16, Q 3.62, R 2.63, S 3.17, T 3.39, V 3.6, Y 4.29
K10: A 3.24, C 4.27, D 3.4, E 2.11, F 3.36, H 1.38, L 4.27, M 2.47, N 1.9, P 3.19, T 2.23, V 1.83
L11: A 2.56, C 3.35, D 2.78, E 3.86, F 2.14, I 3.2, K 2.98, M 2.93, P 2.34, Q 2, R 1.3, S 2.29, T 2.03, W 2.1, Y 2.28
N12: E 3.9, F 2.51, G 2.62, I 2.19, S 2.5, T 2.92
L13: D 1.74, E 1.4, F 1.7, G 1.88, H 2.3, I 2.39, K 3.2, M 3.14, N 3.72, P 2.73, Q 3.27, R 3.69, S 3.54, T 3.36, V 3.02, W 2.81
H14: C 2.28, D 2.21, E 4.65, G 4.41, I 2.28, K 2.66, N 3.26, P 2.53, Q 2.43, Y 2.93
E15: A 2.52, C 1.99, F 2.77, G 2.92, K 2.5, L 3.71, P 2.38, Q 2.77, S 2.96, T 3.96, V 2.61, W 3.87, Y 1.94
E16: C 3.87, I 1.97, K 1.77, L 3.15, N 2.09, P 3.81, Q 1.57, R 2.24, T 2.81, Y 1.43
E17: D 2.28, F 1.95, H 2.34, L 1.8, M 2.37, N 2.3, P 2.91, Q 2.7, R 3.74, Y 3.14
H18: A 4.04, E 2.33, I 2.93, K 3.13, M 3.56, N 3.21, T 1.12
V19: A 1.58, C 1.63, D 3.54, F 2.52, G 1.4, H 3.1, I 1.93, K 1.99, N 1.59, Q 3.04, R 2.89, T 2.52, W 1.04
L20: A 2.05, C 3.71, D 1.19, E 2.24, F 2.29, G 4.03, H 1.86, I 2.83, K 1.91, M 2.15, P 2.31, Q 1.81, T 2.4, V 1.01, Y 2.9
L21: C 3.18, D 1.85, G 2.76, K 3.43, M 2.45, N 1.68, P 1.69, Q 2.02, S 2.08, V 4.64, Y 2.92
M22: A 3.3, C 2.61, D 1.17, E 1.15, F 2.88, G 2.01, H 2.06, I 2.91, K 1.7, L 2.66, N 2.99, P 2.09, Q 2.36, R 1.33, S 1.68, T 1.84, W 2.81, Y 2.25
A23: D 3.29, E 2.23, H 2.49, L 3.49, R 2.37, V 1.85, Y 3.16
I24: A 2.8, C 3.08, D 1.87, E 2.55, F 3.74, K 2.69, N 2.74, P 1.21, Q 2.48, R 2.35, S 1.97, T 1.85, W 2.33, Y 3.26

Variants of: B2
Assay: as above
Details: c terminus: native

Protein stability index, by site and new letter:
L1: D 1.76, E 2.09, F 2.29, G 2.5, H 1.82, I 1.71, K 1.85, M 1.86, N 3.8, P 2.06, Q 3.17, R 2.13, S 2.78, T 1.85, V 1.8, W 1.89, Y 2.31
T2: A 1.67, C 1.96, D 1.78, F 1.95, G 1.36, H 2.12, I 1.86, K 2.28, L 2.26, N 2.21, P 2.72, Q 1.32, R 1.85, S 2.59, V 1.58
K3: A 1.38, D 2.39, E 1.97, F 1.51, G 1.74, H 2.28, L 2.36, N 2.08, P 2.66, Q 2.6, S 1.91, T 2.19, V 2.86, Y 2.73
A4: C 1.63, D 1.25, F 1.75, G 1.36, H 1.96, I 1.61, K 1.8, L 1.08, M 1.69, N 2, P 3.55, Q 1.65, S 2.02, T 1.78, V 1.58, W 2.44
S5: A 2.57, C 1.86, D 1.19, E 1.81, F 2.03, G 1.24, H 1.55, I 2.9, K 2.43, L 2.21, M 1.83, N 1.99, P 2.21, Q 3.27, T 2.08, V 2.5, W 3.95
L6: D 1.5
